In patent US20100129344A1, “MEDICAL USES AND THERAPIES BASED UPON THE ACTION OF AZUROCIDIN ON IGFBP-1” (priority 2005, published 2010):
Marks after values point to notes of the source that are not given here.

Columns and labels:
[1] = target: T1, des(1-3)IGF-I (Homo sapiens, UniProt P05019); test: BIAcore analysis over des(1-3)IGF-I biosensor surface; assay type: binding; conditions: 200 nM, 2-h and 4-h incubations with partially purified azurocidin
T1 construct: IGF-I, IGF-II and des(1-3)IGF-I were immobilized on the sensor chip by amine coupling; purchased GroPep (Adelaide, Australia)
Experimental: Recombinant pIGFBP-1 was analyzed across a des(1-3) IGF-I biosensor surfaces with a concentration range of 50, 100, 200, 400 nM, at a flow rate of 10 μl/min. The mean sensorgrams are shown for 400 nM IGFBP-1 (intact, n=3) and 200 nM IGFBP-1, intact (0 h, n=4) and after 2-h (n=5) and 4-h (n=3) incubations with partially purified azurocidin in a protease:substrate ratio of 1:3 500 for 2 h at 37 C.
(§1) Instrument and reagents (buffers, chemicals for activating and deactivated) were purchased from BIAcore (Uppsala, Sweden). IGF-I, IGF-II and des(1-3)IGF-I were immobilized on the sensor chip by amine coupling and deactivated with 0.1M ethanolamine. A reference flow cell was also prepared to correct for background and bulk refractive index contribution. After equilibration buffer to achieve a stable baseline, binding experiments was at 22 C in 2 separate experiments with the samples injected in random order. 40 μl of each sample was injected over the sensor surface at a rate of 10 μl/min (association period), followed by a 6 min wash with buffer (dissociation period). The sensor surface was regenerated with 20 μl of 100 mM HCl and washed for 6 min before the next sample. We used a 1:1 Langmuir binding interaction model for kinetic analysis using the BIAcore software and GraphPad Prism (GraphPad Software Inc, San Diego, Calif.).

[2] = system: MCF-7 human breast cancer cells; test: 3H-Thymidine incorporation; assay type: cell-based; conditions: IGF-II 10 ng/ml + pIGFBP-1 90 ng/ml; 6 experiments
Experimental: Cell studies. MCF-7 human breast cancer cells were maintained in MEM alpha ribonucleic acid-free medium supplemented with 10% foetal bovine serum, 50 Unit/ml penicillin sodium, 50 μg/ml streptomycin sulfate and 2 mM L-glutamine at 37C in 5% CO2 humidified environment.
3H-Thymidine incorporation: Experiments were carried out in 48-well plates, at 70% confluence. After a 20-h incubation in serum-free medium supplemented with 0.1% BSA, the experimental conditions were added for a further 24 h, with ^3H-thymidine (1 μCi/ml) added for the last 4 h. Cells were then washed with ice-cold 0.9% NaCl three times and incubated with ice-cold 5% TCA for 15 min at 22 C. The fixed nucleotides were solubilized in 0.1M NaOH at 22 C and subjected to liquid scintillation counting.
(§2) Statistical analyses. The effect of IGF-II and IGFBP-1 in muscle cell culture was analyzed by two-way ANOVA. Where significant differences were observed, comparisons were made using the Tukey test. In the study using MCF-7 breast cancer cells the Wolcoxon Matched Pairs test was used. Statistical significance was set at P<0.05.

[3] = system: primary human skeletal myotubes; test: 2-Deoxyglucose transport (glucose uptake); assay type: cell-based
Experimental: Primary human skeletal myotubes were incubated under serum-free conditions for 24 h. Glucose uptake was determined as described in the Methods. The results are the mean±SEM of four experiments using cells from different individuals each with 3 replicates; and are expressed as the percentage of uptake in the absence of IGF-II or IGFBP-1 for each. The effect of IGF-II is shown in the hatched bars. The effect of pIGFBP-1 on stimulation of glucose uptake by 10 ng/ml IGF-II was analyzed by 2-way ANOVA for each of the 20 ng/ml and 80 ng/ml concentrations; *, P<0.01, **, P<0.001, compared to no IGF-II; ††, P<0.001, compared to no IGFBP-1 or intact IGFBP-1.
Human skeletal muscle cells were isolated, with approval from the local Ethics Committee, from the muscle biopsies by trypsin digestion and were grown to confluent myoblasts and differentiated into myotubes as previously described in detail (Bouzakri et al, Diabetes, 52, 1319-1325, 2003). Muscle from 4 different subjects were individually minced before being incubated for 30 min in 5 ml of trypsin-EDTA (Invitrogen, Carlsbad, Calif.) at 37° C. under agitation. After being centrifuged (150 g), the pellet was rinsed several times in PBS. Cells were first preplated for 1 h to eliminate rapidly adherent fibroblasts. The remaining cells were then cultured in a growth medium composed of HAM F-10 supplemented with 20% fetal bovine serum (FBS; Invitrogen Stockholm, Sweden), and 1% antibiotics (Invitrogen Stockholm, Sweden). Cells were plated in 6 wells plates and cultured in growth medium at 37° C. until confluence. Differentiation into myotubes was induced by changing the medium to Dulbecco's modified Eagle's medium supplemented with 2% FBS, and 1% antibiotics.
2-Deoxyglucose transport: Glucose uptake was performed as previously described for primary human muscle cells (Bouzakri et al, Diabetologia, 47, 1314-1323, 2004). After 24-h serum starvation, myotubes were pre-incubated with or without IGF-II (10 ng/ml) and IGF-II+IGFBP-1 (intact or cleaved at 20 or 80 ng/ml) for 90 min. IGF-II and IGFBP-1 were mixed 30 min before the experiments. Cells were then washed four times with pre-warmed buffer (150 mmol/l NaCl, […] KCl, 1.2 mmol/l MgSO4, 1.2 mmol/l CaCL2, 2.5 mmol/l NaH2PO4, 10 mmol/l HEPES, pH 7.4) and glucose uptake was measured for 15 min using [3H]2-deoxyglucose (50 μmol/l, 14,800 Bq/well). Results were expressed as the percentage of glucose uptake in the absence of IGF-II or IGFBP-1.
as §2

[4] = target: T2, azurocidin (Homo sapiens, UniProt P20160); test: Stability of IGFBP-1 fragments generated in the presence of azurocidin; assay type: biochemical
T2 construct: from tissue
T2 sequence (P20160 27-248): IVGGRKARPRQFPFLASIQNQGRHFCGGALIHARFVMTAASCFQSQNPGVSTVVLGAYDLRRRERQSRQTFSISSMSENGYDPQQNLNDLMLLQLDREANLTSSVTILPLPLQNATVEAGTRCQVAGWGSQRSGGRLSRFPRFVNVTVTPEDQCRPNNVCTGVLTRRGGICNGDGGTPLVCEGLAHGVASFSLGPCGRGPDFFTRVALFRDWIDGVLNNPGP

[5] = target: IGF-I (Homo sapiens, UniProt P05019); test: BIAcore analysis over IGF-I biosensor surface; assay type: binding; design: purchased Kabi Pharmacia (Sweden), donated; conditions: for kd (rate of dissociation, over 261-360 s) / ks (rate of association, over 21-120 s): mean ± SEM
Experimental: (§3) Recombinant pIGFBP-1 was analyzed across IGF-I (A, C) and IGF-II (B, D) biosensor surfaces. A concentration range of 50, 100, 200, 400 nM was analyzed at a flow rate of 10 μl/min. A,B: Mean sensorgrams for 400 nM IGFBP-1 (intact, n=3) and 200 nM IGFBP-1, intact (0 h, n=4) and after 2-h (n=5) and 4-h (n=3) incubations with partially purified azurocidin in a protease:substrate ratio of 1:3 500 for 2 h at 37 C. C,D: The rate of association (ks), the absolute value of the slope (dRU/dt versus RU) over the linear initial association phase (21-120 s), is shown for pIGFBP-1, intact (closed circles), and after incubation with partially purified azurocidin for 2 h at 37 C (open circles); and
as §1

[6] = target: IGF-II (Homo sapiens, UniProt P01344); test: BIAcore analysis over IGF-II biosensor surface; assay type: binding; design: IGF-I, IGF-II and des(1-3)IGF-I were immobilized on the sensor chip by amine coupling; conditions: IGFBP-1 200 nM; for kd (rate of dissociation, over 261-360 s) / ks (rate of association, over 21-120 s): mean ± SEM
Experimental: as §3, §1

[7] = IGF-I surface, IGFBP-1 200 nM, proteolysis 2 h by azurocidin
[8] = IGF-I surface, IGFBP-1 200 nM, proteolysis 4 h by azurocidin

IGF-II, sequence (P01344 25-91 limits assumed): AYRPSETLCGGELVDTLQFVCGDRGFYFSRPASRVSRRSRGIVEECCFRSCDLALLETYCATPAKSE
IGF-I, sequence (P05019 49-118 limits assumed): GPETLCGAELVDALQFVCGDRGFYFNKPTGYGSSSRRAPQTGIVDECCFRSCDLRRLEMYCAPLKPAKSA
T1 sequence (P05019 52-118): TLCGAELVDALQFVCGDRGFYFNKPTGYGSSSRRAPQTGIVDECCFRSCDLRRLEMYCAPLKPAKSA

effect of proteolysis on rate of dissociation from des(1-3)IGF-I [1]: clearly increase | kd (rate of dissociation, over 261-360 s) [5, 7]: 6.40 ± 0.25 ×10^−4 s^−1 | ks (rate of association, over 21-120 s) [5, 7]: 17.26 ± 0.49 ×10^−3 s^−1 | rel ks (relative to 200 nM intact pIGFBP-1) ([5]; IGF-I surface, IGFBP-1 200 nM, proteolysis 4 h): 2.96*^† | kd (rate of dissociation, over 261-360 s) [5, 8]: 11.36 ± 0.05 ×10^−4 s^−1 | ks (rate of association, over 21-120 s) [5, 8]: 12.69 ± 0.08 ×10^−3 s^−1 | predicted maximum response for interaction with IGF-I ([5]; based on initial rate of association (21-120 s), proteolysed = 2-h time point): 1156±16 RU | kd rel to IGF-I ([6]; proteolysis 2 h): 2.51^‡ | ks rel to IGF-I ([6]; proteolysis 2 h): 0.89 | kd (rate of dissociation, over 261-360 s) ([6]; proteolysis 2 h by azurocidin): 15.99 ± 0.19 ×10^−4 s^−1 | ks (rate of association, over 21-120 s) ([6]; proteolysis 2 h by azurocidin): 15.43 ± 0.58 ×10^−3 s^−1 | kd rel to IGF-I ([6]; proteolysis 4 h): 2.39^‡ | ks rel to IGF-I ([6]; proteolysis 4 h): 1.01 | rel ks (relative to 200 nM intact pIGFBP-1) ([6]; proteolysis 4 h): 2.86*^† | kd (rate of dissociation, over 261-360 s) ([6]; proteolysis 4 h by azurocidin): 27.17 ± 0.12 ×10^−4 s^−1 | ks (rate of association, over 21-120 s) ([6]; proteolysis 4 h by azurocidin): 12.80 ± 0.08 ×10^−3 s^−1
B1: proteolysed IGFBP-1: phosphorylated IGFBP-1 after incubation with partially purified azurocidin (mixture of N- and C-terminal fragments) (protein)
chain 1: APWQCAPCSAEKLALCPPVSASCSEVTRSAGCGCCPMCALPLGAACGVATARCARGLSCRALPGEQQPLHALTRGQGACVQESDASAPHAAEAGSPESPESTEITEEELLDNFHLMAPSEEDHSILWDAI
chain 2: STYDGSKALHVTNIKKWKEPCRIELYRVVESLAKAQETSGEEISKFYLPNCNKNGFYHSRQCETSMDGEAGLCWCVYPWNGKRIPGSPEIRGDPNCQIYFNVQN
IGF-II-stimulated 3H-thymidine incorporation after addition of IGFBP-1 [2]: no inhibition | effect on IGF-II-stimulated glucose uptake ([3]; IGF-II 10 ng/ml + IGFBP-1 20 or 80 ng/ml): inhibited in a dose-response manner | inhibitory effect on IGF-II-stimulated glucose uptake compared with intact IGFBP-1 ([3]; IGF-II 10 ng/ml + IGFBP-1 20 or 80 ng/ml, P<0.001): significantly less | effect on glucose uptake alone ([3]; absence of exogenous IGF-II, 80 ng/ml): stimulated glucose uptake | further degradation of IGFBP-1 fragments ([4]; 2-h incubation at 45 C): no further degradation | further degradation of IGFBP-1 fragments ([4]; 24-h incubation at 37 C): no further degradation
